B1: unnamed (parent)
chain 1: MAVSESQLKKMVSKYKYRDLTVRETVNVITLYKDLKPVLDSYVFNDGSSRELMNLTGTIPVPYRGNTYNIPICLWLLDTYPYNPPICFVKPTSSMTIKTGKHVDANGKIYLPYLHEWKHPQSDLLGLIQVMIVVFGDEPPVFSRPISASYPPYQATGPPNTSYMPGMPGGISPYPSGYPPNPSGYPGCPYPPGGPYPATTSSQYPSQPPVTTVGPSRDGTISEDTIRASLISAVSDKLRWRMKEEMDRAQAELNALKRTEEDLKKGHQKLEEMVTRLDQEVAEVDKNIELLKKKDEELSSALEKMENQSENNDIDEVIIPTAPLYKQILNLYAEENAIEDTIFYLGEALRRGVIDLDVFLKHVRLLSRKQFQLRALMQKARKTAGLSDLY
chain 2: LQSRPEPTAPPEESFRSGVETTTPPQKQEPIDKELYPLTSLRSLFGNDPSSQ

Variants of: B1
Test: yeast 2-hybrid assay
Details: with partner chain of the complex shown; parent: 1; read off a plot

| Variant | ratio to parent |
| --- | --- |
| chain 1 K9A K10A | 9.3 |
| chain 1 M11A V12A S13A K14A | 1.9 |
| chain 1 K16A | 2.4 |
| chain 1 Q7A L8A | 1.1 |
| chain 1 Y110A | 0.35 |
| chain 1 K10A | 2.9 |
| chain 1 Y42A | 0.95 |
| chain 1 Y82A | 0.8 |
| chain 1 S41A | 1.3 |

From article PMC7232412
